The data set in a line: self-splicing fitness, log relative to wild type (ln ratio); higher = more splicing; Tetrahymena group I intron in knt gene, E. coli kanamycin selection, DiMSum; sequences stand for … in CUCUCU…GGAGGGAAAAGUUAUCAGGCAUGCACCUGGUAGCUAGUCUUUAAACCAAUAGAUUGCAUCGGUUUAAAAGGCAAGACCGUCAAAUUGCGGGAAAGGGGUCAACAGCCGUUCAGUACCAAGUCUCAGGGGAAACUUUGAGAUGGCCUUGCAAAGGGUAUGGUAAUAAGCUGACGGACAUGGUCCUAACCACGCAGCCAAGUCCUAAGUCAACAGAUCUUCUGUUGAUAUGGAUGCAGUUCACAGACUAAAUGUCGGUCGGGGAAGAUGUAUUCUUCUCAUAAGAUAUAGUCGGACCUCUCCUUAAUGGGAGCUAGCGGAUGAAGUGAUGCAACACUGGAGCCGCUGGGAACUAAUUUGUAUGCGAAAGUAUAUUGAUUAGUUUUGGAGUACUCGUGGUCG
In outline: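 Six replicate transformations of E. coli BL21(DE3) with a pET-22b(+) library were grown overnight at 37°C or 30°C. The library randomised all eight P1ex-region intron nucleotides, the intron lying in the knt kanamycin-resistance gene, and plates were LB agar with or without 25 μg/mL kanamycin plus 100 μg/mL carbenicillin, 50 μM IPTG and 0.2% rhamnose. Pooled colonies were amplicon-sequenced on an Illumina HiSeq 2500, and fitness is the DiMSum error-weighted combination of wild-type-normalised replicate fold changes, kanamycin versus none.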

± gives the uncertainty stated by the source.

Regarding GGUCAGCAAUAUUACGGUGA, the “self-splicing fitness (ln)” value runs as follows: (30 °C) -0.695 ± 0.074; (37 °C) -1 ± 0.11.
The matching figures for ACCUAGCAAUAUUACGGGGG: -3.84 ± 0.2 and -1.59 ± 0.17.
In the case of CGACAGCAAUAUUACGCAAC, the “self-splicing fitness (ln)” value was -4.32 ± 0.31 (30 °C) and -2.61 ± 0.27 (37 °C).
The matching figures for UGUGAGCAAUAUUACGUUAG: -2.17 ± 0.25 and -2.84 ± 0.34.
For CUCGAGCAAUAUUACGAAUG, the “self-splicing fitness (ln)” value (30 °C) was -1.91 ± 0.14 and the “self-splicing fitness (ln)” value (37 °C) was -1.15 ± 0.17.
The matching figures for UAUCAGCAAUAUUACGCGUA: -0.493 ± 0.1 and 0.0959 ± 0.12.
The matching figures for ACAGAGCAAUAUUACGGGUG: -2.96 ± 0.15 and -1.43 ± 0.12.
On to AAGCAGCAAUAUUACGGGCA, for which the “self-splicing fitness (ln)” value was -0.552 ± 0.072 (30 °C) and -0.789 ± 0.077 (37 °C).
As for GGAAAGCAAUAUUACGUGAA, the “self-splicing fitness (ln)” value is, setting by setting: (30 °C) -1.96 ± 0.11; (37 °C) -1.45 ± 0.16.
The corresponding values for ACUUAGCAAUAUUACGAACA are -1.35 ± 0.2 and -0.724 ± 0.19.
As to AAAGAGCAAUAUUACGGCUC, the “self-splicing fitness (ln)” value is -2.64 ± 0.21 (30 °C) and -1.67 ± 0.21 (37 °C).
Regarding CACCAGCAAUAUUACGUGCA, the “self-splicing fitness (ln)” value (30 °C) is -4.11 ± 0.17 and the “self-splicing fitness (ln)” value (37 °C) is -2.56 ± 0.15.
The matching figures for UGGUAGCAAUAUUACGUUCG: -0.221 ± 0.12 and -0.719 ± 0.14.
Regarding GCUUAGCAAUAUUACGAACC, the “self-splicing fitness (ln)” value is, setting by setting: (30 °C) -0.273 ± 0.23; (37 °C) -0.336 ± 0.27.
Turning to CUGAAGCAAUAUUACGCUAA, the “self-splicing fitness (ln)” value (37 °C) was -2.45 ± 0.32.
Turning to UUGAAGCAAUAUUACGCGUU, the “self-splicing fitness (ln)” value was -3.35 ± 0.15 (30 °C) and -0.906 ± 0.12 (37 °C).
Turning to AGUAAGCAAUAUUACGGCAA, the “self-splicing fitness (ln)” value runs as follows: (30 °C) -0.915 ± 0.11; (37 °C) -0.179 ± 0.096.
Consider CACUAGCAAUAUUACGCCAG, for which the “self-splicing fitness (ln)” value (30 °C) is -1.1 ± 0.08 and the “self-splicing fitness (ln)” value (37 °C) is -0.0668 ± 0.11.
The corresponding values for UAGUAGCAAUAUUACGGUGA are -2.29 ± 0.42 and -1.46 ± 0.24.
As for AACUAGCAAUAUUACGAAUU, the “self-splicing fitness (ln)” value by setting is: (30 °C) -1.49 ± 0.076; (37 °C) -0.396 ± 0.097.
The corresponding values for CUCAAGCAAUAUUACGGGCG are -2.1 ± 0.086 and -1.34 ± 0.094.
In the case of UUUGAGCAAUAUUACGCUCG, the “self-splicing fitness (ln)” value is, setting by setting: (30 °C) -3.8 ± 0.4; (37 °C) -2.01 ± 0.34.
The matching figures for UGGUAGCAAUAUUACGUUGU: -4.52 ± 0.36 and -2.86 ± 0.26.
Consider AAAUAGCAAUAUUACGACUU, for which the “self-splicing fitness (ln)” value is, setting by setting: (30 °C) 0.559 ± 0.099; (37 °C) 0.387 ± 0.13.
The corresponding values for AAUAAGCAAUAUUACGUUCG are -1.5 ± 0.08 and -0.605 ± 0.095.
GUUCAGCAAUAUUACGAUGC: the “self-splicing fitness (ln)” value was -0.236 ± 0.17 (30 °C) and 0.2 ± 0.14 (37 °C).
GGGUAGCAAUAUUACGCGGU: the “self-splicing fitness (ln)” value is, setting by setting: (30 °C) -3.15 ± 0.21; (37 °C) -1.4 ± 0.2.
The matching figures for UAUUAGCAAUAUUACGAUAA: -1.07 ± 0.19 and 0.628 ± 0.16.
The matching figures for CACAAGCAAUAUUACGGUAU: -3.8 ± 0.14 and -2.35 ± 0.12.
As to GAAGAGCAAUAUUACGCAAA, under “37 °C”, the “self-splicing fitness (ln)” value is -2.69 ± 0.33.
As to ACUUAGCAAUAUUACGUAAC, the “self-splicing fitness (ln)” value reads like this: (30 °C) -2.9 ± 0.12; (37 °C) -2.43 ± 0.2.
The corresponding values for UUAAAGCAAUAUUACGAUCA are 0.0315 ± 0.083 and 0.412 ± 0.097.
The matching figures for UUUCAGCAAUAUUACGAUUA: 0.327 ± 0.096 and 0.0465 ± 0.088.
Regarding GGAGAGCAAUAUUACGGCAC, the “self-splicing fitness (ln)” value (30 °C) is -1.39 ± 0.37.
In the case of CCAUAGCAAUAUUACGCAUA, the “self-splicing fitness (ln)” value runs as follows: (30 °C) -3.76 ± 0.26; (37 °C) -2.72 ± 0.29.
The corresponding values for CAAUAGCAAUAUUACGUCAG are -1.95 ± 0.066 and -1.12 ± 0.07.
The matching figures for UGGCAGCAAUAUUACGGGAU: -2.84 ± 0.23 and -2.48 ± 0.23.
As to AGGGAGCAAUAUUACGUGCA, the “self-splicing fitness (ln)” value reads like this: (30 °C) -4.52 ± 0.34; (37 °C) -2.5 ± 0.24.
In the case of GUCUAGCAAUAUUACGCACG, the “self-splicing fitness (ln)” value is -1.27 ± 0.18 (30 °C) and -1.14 ± 0.18 (37 °C).
The matching figures for AAGCAGCAAUAUUACGUAGU: -2.61 ± 0.1 and -2.47 ± 0.14.
The corresponding values for UUCCAGCAAUAUUACGAGUC are -2.56 ± 0.13 and -1.13 ± 0.15.
The matching figures for GGAUAGCAAUAUUACGUACC: -2.37 ± 0.26 and -0.601 ± 0.25.
On to ACGAAGCAAUAUUACGGAGU, for which the “self-splicing fitness (ln)” value (30 °C) was -3.82 ± 0.24 and the “self-splicing fitness (ln)” value (37 °C) was -3.07 ± 0.29.
Consider CCAGAGCAAUAUUACGUGCG, for which the “self-splicing fitness (ln)” value by setting is: (30 °C) -1.59 ± 0.077; (37 °C) -0.888 ± 0.097.
For the sequence GUUUAGCAAUAUUACGAACA, the “self-splicing fitness (ln)” value was -2.02 ± 0.39 (30 °C) and -1.24 ± 0.26 (37 °C).
Regarding UCGCAGCAAUAUUACGCUUU, the “self-splicing fitness (ln)” value reads like this: (30 °C) -3.69 ± 0.18; (37 °C) -1.84 ± 0.13.
The corresponding values for GAGCAGCAAUAUUACGCUGG are -3 ± 0.16 and -1.47 ± 0.16.
With ACUCAGCAAUAUUACGGAAG, the “self-splicing fitness (ln)” value by setting is: (30 °C) -0.707 ± 0.088; (37 °C) -0.89 ± 0.13.
For UAUUAGCAAUAUUACGAAAG, where the note is “30 °C”, the “self-splicing fitness (ln)” value is -2.42 ± 0.37.
AAGCAGCAAUAUUACGCCCA: the “self-splicing fitness (ln)” value by setting is: (30 °C) -0.461 ± 0.15; (37 °C) 0.244 ± 0.23.
The corresponding values for GCAUAGCAAUAUUACGGCGA are -0.526 ± 0.15 and -0.873 ± 0.15.
Take CCCUAGCAAUAUUACGUUCA: the “self-splicing fitness (ln)” value is -3.05 ± 0.19 (30 °C) and -2.7 ± 0.2 (37 °C).
The corresponding values for GAUAAGCAAUAUUACGUAAA are -2.24 ± 0.17 and -1.19 ± 0.17.
Regarding AGGCAGCAAUAUUACGGUGC, the “self-splicing fitness (ln)” value runs as follows: (30 °C) -3.54 ± 0.16; (37 °C) -2.89 ± 0.2.
The matching figures for UUCUAGCAAUAUUACGACGG: -1.31 ± 0.1 and -1.77 ± 0.15.
The matching figures for AACCAGCAAUAUUACGCAUC: -1.98 ± 0.079 and -0.531 ± 0.085.
The matching figures for GUAUAGCAAUAUUACGCCUC: -1.32 ± 0.21 and -0.746 ± 0.27.
For the sequence CGCUAGCAAUAUUACGGAUG, the “self-splicing fitness (ln)” value is -1.13 ± 0.075 (30 °C) and -0.108 ± 0.096 (37 °C).
The matching figures for AUAAAGCAAUAUUACGGCGC: 0.0765 ± 0.13 and 0.21 ± 0.14.
As to GGAUAGCAAUAUUACGGCGC, the “self-splicing fitness (ln)” value (30 °C) stood at 0.356 ± 0.34 and the “self-splicing fitness (ln)” value (37 °C) worked out at 0.121 ± 0.33.
The corresponding values for ACAAAGCAAUAUUACGCAGA are -2.12 ± 0.14 and -1.06 ± 0.093.
The corresponding values for UACCAGCAAUAUUACGGUCU are -0.501 ± 0.056 and 0.24 ± 0.067.
UAUUAGCAAUAUUACGGCGA: the “self-splicing fitness (ln)” value reads like this: (30 °C) -0.206 ± 0.15; (37 °C) -0.325 ± 0.16.
In the case of GACUAGCAAUAUUACGGCUA, the “self-splicing fitness (ln)” value is -2.4 ± 0.17 (30 °C) and -0.921 ± 0.12 (37 °C).
With AGGCAGCAAUAUUACGUCAA, the “self-splicing fitness (ln)” value runs as follows: (30 °C) -1.25 ± 0.098; (37 °C) -0.465 ± 0.095.
In the case of GUCGAGCAAUAUUACGGCCA, the “self-splicing fitness (ln)” value is, setting by setting: (30 °C) -1.28 ± 0.36; (37 °C) -0.721 ± 0.27.
The matching figures for AUUAAGCAAUAUUACGCCUG: -0.765 ± 0.15 and -0.543 ± 0.17.
The matching figures for CUAAAGCAAUAUUACGAGCC: -1.33 ± 0.18 and -0.475 ± 0.44.
The matching figures for UUUGAGCAAUAUUACGAUAG: -2.09 ± 0.19 and -1.87 ± 0.23.
For the sequence CUUCAGCAAUAUUACGCGUC, the “self-splicing fitness (ln)” value by setting is: (30 °C) -2.6 ± 0.23; (37 °C) -0.821 ± 0.14.
With CAAUAGCAAUAUUACGCAUG, the “self-splicing fitness (ln)” value was -1.35 ± 0.091 (30 °C) and -0.845 ± 0.11 (37 °C).
For CCCGAGCAAUAUUACGUUCU, the “self-splicing fitness (ln)” value was -3.61 ± 0.25 (30 °C) and -2.1 ± 0.25 (37 °C).
The matching figures for GACCAGCAAUAUUACGUUUU: -0.363 ± 0.036 and -0.174 ± 0.052.
GAGCAGCAAUAUUACGGUUG: the “self-splicing fitness (ln)” value by setting is: (30 °C) -3.18 ± 0.17; (37 °C) -1.99 ± 0.16.
The corresponding values for AUGUAGCAAUAUUACGCUUA are -0.903 ± 0.14 and -0.145 ± 0.16.
On to CACAAGCAAUAUUACGAAAC, for which the “self-splicing fitness (ln)” value (37 °C) was -1.91 ± 0.25.

(Values after the supplement of paper PMC7877785.)
